19 molecules from patent US20220340894A1 (CDR LIFE, published 2022) can be followed below.

B1: M0850 scFv (scFv)
scFv: QEQLEESGGGLVTPGTPLTLTCTASGFSLSSYAMIWVRQAPGKGLEWIGTINDGGTAFYANWVKGRFTISRTSTTVDLKMTSPTTEDTATYFCARAYGSNGDVYWGYVNLWGQGTLVTVSSGGGGSGGGGSGGGGSGGGGASELVMTQTPASVSEPVGGTVTIKCQASQSIGSNLAWYQQKPGQPPKLLIYAAANLASGVSSRFKGSRSGTEYTLTISGVQAADAATYYCQQGYSSSNVANVFGGGTELEIL
notes: Rabbit scFv from the biopanning screen
B2: M0863 scFv (scFv)
scFv: PEQLMESGGGLVTPGGVLTLTCTASGFSFSSYGVNWVRQAPGKGLEWIGFIFGDGTTYYANWAKGRFTISKTSTTVDLKMTSPTTEDTATYFCARDGYGGYDYIINLWGQGTLVTVSSGGGGSGGGGSGGGGSGGGGASAQVLTQTPASVSAAVGGTVSISCQSSQSVVNNNWLAWYQQKPGQPPKLLIYKASTLESGVPSRFKGSGSGTQFTLTISGVQADDAATYYCQGAYSGNIYYNAFGGGTEVVVK
notes: as for B1
B3: M0866 scFv (scFv)
scFv: QSVKESGGRLVTPGTPLTLTCTASGFTISSSAISWVRQAPGKGLEYIGIIRSGGTTDYASWAKGRFAISKTSTTVDLKITSPTTEDTATYFCARDPPYITSTYFDLWGQGTLVTVSSGGGGSGGGGSGGGGSGGGGASELVLTQPQSVSGSLGQTVSISCKRARDSVESYDVHWYQQHPGKTPTIVIYKDDQRPSGVPDRFSGSIDSTSNSASLTITGLLAEDEADYFCQSFDGDAVVFGGGTQLTVTG
notes: as for B1
B4: M0861 scFv (scFv)
scFv: QSVKESGGRLVTPGTPLTLTCTVSGFSLSNYAMSWVRQAPGKGLEYIGIVSSGGTTYYASWAKGRFTISKTSTTVDLKITSPTTEDTATYFCAKDLYYGPTTYSAFNLWGQGTLVTISSGGGGSGGGGSGGGGSGGGGASELVLTQPASVQVNLGQTVSLTCTADTLSRSYASWYQLKPGQAPVLLIYRDTSRPSGVPDRFSGSSSGNTATLTISGAQAGDEGDYVCATSDGSGSNFQLFGGGTQLTVTG
notes: as for B1
B5: M0865 scFv (scFv)
scFv: PAALMESGGRLVTPGTPLTLTCTVSGIDLSTFAMTWVRQAPGKGLEWLGIINTGGSAYYTSWAKGRFTISRTSTTVDLKITSPTTEDTATYFCARGDWSSATDLWGQGTLVTISSGGGGSGGGGSGGGGSGGGGASDPDMTQTPSSVSAAVGGTVTINCQASQSVYDNKVLAWYRQKPGQPPKLLIYKASTLASGVPSRFKGRGSGTQFTLTISGVQADDAATYYCLGEFSCSSADCHAFGGGTELEIL
notes: as for B1
B6: M0855 scFv (scFv)
scFv: QQQLEESGGGLVTPGTPLTLTCTVSGIDLSSYAMGWVRQAPGKGLEWIGTINDGGSAFYASWVKGRFTISRTSTTVDLKITSPTAEDTATYFCAKTYGTNGDVYWGYFNLWGQGTLVTISSGGGGSGGGGSGGGGSGGGGASELVMTQTPASVSEPVGGTVTIKCQASQSIGSNLAWYQQKPGQPPKLLIYYESILASGVPSRFSGSGSGTEYTLTISGAQADDAATYYCQQGYSSSNIDNAFGGGTEVVVK
notes: as for B1
B7: M0856 scFv (scFv)
scFv: QQQLEESGGGLVTPGTPLTLTCTVSGIDLSSYAMGWVRQAPGKGLEWIGTINDGGSAFYASWVKGRFTISRTSTTVDLKITSPTAEDTATYFCAKTYGTNGDVYWGYFNLWGQGTLVTISSGGGGSGGGGSGGGGSGGGGASELVMTQTPASVSEPVGGTVTIKCQASQSIGSNLAWYQQKPGQPPKLLIYYESILASGVPSRFSGSGSGTEYTLTISGAQADDAATYYCQQGYSSSNILNAFGGGTEVVVK
notes: as for B1
B8: M0849 scFv (scFv)
scFv: QEQLEESGGGLVTPGGTLTLTCTVSGFSLSNYAMGWVRQAPGKGLEWIGTINDGGTAFYAKWLKGRFTISRTSTTVDLKITSPTTEDTATYFCARAYGSNGDVYWGYFNLWGQGTLVTISSGGGGSGGGGSGGGGSGGGGASELVMTQTPSSVSEPVGGTVTIKCQASQSIGSNLAWYQQRPGQPPKLLIYSASTLASGVSSRFKGSGSGTESTLTISGVQAADAATYYCQQGYSSSNVDNVFGGGTELEIL
notes: as for B1
B9: M0857 scFv (scFv)
scFv: QQQLVESGGRLVTPGTPLTLTCTASGIDLNSNAMSWVRQGPGKGLEWIGDIWSGGYTDYASWAKGRFTISKTSTTVDLKMTSLTAADTATYFCARDRLAGDGVVDYDLWGQGTLVTISSGGGGSGGGGSGGGGSGGGGASELDMTQTPASVEVAVGGTVTIKCQASQNIYSNLAWYQQKPGQRPKLLIYGASTLASGVPSRFKGSGSGTEYTLTINGVQAADAATYYCQQGFSSSNVDNVFGGGTEVVVK
notes: as for B1
B10: M0854 scFv (scFv)
scFv: QSVKESWGRLVTPGGSLTLTCTVSGIDLNNYAMGWVRQAPGKGLEWIGTINNDGATYYPSWARGRFTISKTSTTVDLKITSPTTEDTATYFCARTYGSNGDVYWGYFNLWGQGTLVTVSSGGGGSGGGGSGGGGSGGGGASALELTQTPASVEVAVGGTVTINCQASQSIGGALNWYQQKSGQPPKLLIYLASTLASGVSSRFKGSGSGTQFTLTISGVEAADAATYYCQQGYSASNIDNAFGGGTEVVVK
notes: as for B1
B11: M0852 scFv (scFv)
scFv: QQQLEESGGGLVTPGTPLTLTCTVSGFSLSNYAMGWVRQAPGKGLEWIGTINDGGTAFYANWLKGRFTISRTSTTVDLKITSPTTEDTATYFCARAYGSNGDVYWGYFNLWGQGTLVTVSSGGGGSGGGGSGGGGSGGGGASELVMTQTASPVSAAVGGTVTINCQASQSISSRSLSWYQQKPGQPPKLLIYEASKLASGVPSRFSGSGSGTQFTLTISGVQADDAATYYCQQGYSSSNVDNVFGGGTEVVVK
notes: as for B1
B12: M0851 scFv (scFv)
scFv: QEQLEESGGGLVTPGTPLTLTCTASGFSLSSYAMIWVRQAPGKGLEWIGTINDGGTAFYASWVKGRFTISRTSTTVDLKITSPTTEDTATYFCARAYGSNGDVYWGYVNLWGQGTLVTISSGGGGSGGGGSGGGGSGGGGASELVMTQTPSSVSAAVGGTVTINCQASQNIGSVFAWYQQKPGQPPKLLIYKASSLASGVPSRFKGSGSGTQFTLTISGVEAADAATYYCQQGASSSNVDNIFGGGTEVVVK
notes: as for B1
B13: M0859 scFv (scFv)
scFv: QSVKESGGRLVTPGTPLTLTCTVSGFSLSNYAMSWVRQAPGKGLEYIGIVSSGGTTYYASWAKGRFTISKTSTTVDLKITSPTTEDTATYFCAKDLYYGPTTYSAFNLWGQGTLVTISSGGGGSGGGGSGGGGSGGGGASELVLTQPQSVSGSLGQTVSISCKRARDNIEDYYVHWYQQHPGKTPTIVIHKDDQRPSGVPDRFSGSIDSTSNSASLTITGLLAEDEADYFCQSFDNDASPVFGGGTQLTVTG
notes: as for B1
B14: M0860 scFv (scFv)
scFv: QSVKESGGRLVTPGTPLTLTCTVSGFSLSNYAMSWVRQAPGKGLEYIGIVSSGGTTYYASWAKGRFTISKTSTTVDLKITSPTTEDTATYFCAKDLYYGPTTYSAFNLWGQGTLVTISSGGGGSGGGGSGGGGSGGGGASELVLTQPQSVSGSLGQTVSISCKRARDNIEDYYVHWYQQYPGKTPTIVIYKDDQRPSGVPDRFSGSIDSTSNSASLTITGLLAEDEADYFCQSFDNNANVVFGGGTQLTVTG
notes: as for B1
B15: M0858 scFv (scFv)
scFv: QSVEESGGRLVTPGTPLTLTCTVSGFSLSNYAMSWVRQAPGKGLEYIGIVSSGGTTYYASWAKGRFTISKTSTTVDLKITSPTTEDTATYFCAKDLYYGPTTYSAFNLWGQGTLVTVSSGGGGSGGGGSGGGGSGGGGASELVLTQPQSVSGSLGQTVSISCKRARNNIEDYYVHWYQQHPGRSPTIVIHKDDQRPSGVPDRFSGSIDSTSNSASLTITGLLAEDEADYFCQSFDNNANPVFGGGTQLTVTG
notes: as for B1
B16: M0862 scFv (scFv)
scFv: PEQLMESGGGLVTPGGVLTLTCTASGFSFSSYGVNWVRQAPGKGLEWIGFIFGDGTTYYANWAKGRFTISKTSTTVDLKMTSPTTEDTATYFCARDGYGGYDYIINLWGQGTLVTVSSGGGGSGGGGSGGGGSGGGGASAQVLTQTPASVSAAVGGTVSISCQSSQSVVNNNWLAWYQQKPGQPPKLLIYKASTLESGVPSRFKGSGSGTQFTLTISGVQADDAATYYCLGEFSCSSADCHAFGGGTELEIL
notes: as for B1
B17: M0853 scFv (scFv)
scFv: QQQLVESGGGLVTPGTPLTLTCTVSGFSLSNYAMGWVRQAPGKGLEWIGTINDGGTAFYANWLKGRFTISRTSTTVDLKITSPTTEDTATYFCARAYGSNGDVYWGYFNLWGQGTLVTVSSGGGGSGGGGSGGGGSGGGGASELVMTQTASPVSAAVGGTVTINCQASQSISSRSLSWYQQKPGQPPKLLIYEASKLASGVPSRFSGSGSGTQFTLTISGVQADDAATYYCQQGYSSSNVDNFGGGTEVVVK
notes: as for B1
B18: M0864 scFv (scFv)
scFv: QSVKESGGGLVTPGTPLTLTCTVSGFSLSTYAISWVRQAPGKGLEWIGFIDTVDSAYYASWAKGRFTISKTSSTTVDLKMTSPTTEDTATYFCAKLRYGDYGDYTLWGQGTLVTVSSGGGGSGGGGSGGGGSGGGGASELVMTQTPSPVSGAVGGTVTIKCQASQNIYSYLAWYQQKPGQPPKLLIYKASTLASGVPSRVKGSGSGTEYTLTISGVQAADAATYYCQCTYYDSNTFGGGTEVVVK
notes: as for B1
B19: M0848 scFv (scFv)
scFv: QEQLVESGGGLVTPGTPLTLTCTVSGFSLSSYAMGWVRQAPGKGLEWIGTINDGGTAFYASWVKGRFTISRTSTTVDLRVTSPTTEDTATYFCARAYGSNGDVYWGYFNLWGQGTLVTVSSGGGGSGGGGSGGGGSGGGGASELDLTQTPASVEVAVGGTVTIKCQASQSIGSYLSWYQQKPGQRPKLLIFRASTLASGVSSRFKGSGSGTQFTLTISGVECADAATYYCQQGYSSTNLDNVFGGGTEVVVK
notes: as for B1

The assay addresses T1, HLA-A2/MAGE-A4 complex (HLA-A*02:01 extracellular domain, human β2m, MAGE-A4 peptide 230-239) (human, UniProt P04439 25-299 at identity 0.94); P61769 21-119).
T1 construct: also called MAGE-A4/HLA-A2 complex; pMHC
Kind of assay: phage display biopanning and screening of the lambda and optimized kappa libraries.
For B1, the binding result is “binds”. As to B2, the binding result is given as “binds”. Regarding B3, the binding result is on record as “binds”. Take B4: the binding result is on record as “binds”. With B5, the binding result is on record as “binds”. As for B6, the entry is “binds”. On to B7, for which the binding result is on record as “binds”. For the molecule B8, the binding result is listed as “binds”. On to B9, for which the binding result is listed as “binds”. B10: the binding result is on record as “binds”.

Consider B11, for which the binding result is recorded as “binds”. Regarding B12, the binding result is on record as “binds”. Turning to B13, the binding result was “binds”. As for B14, the binding result was “binds”. Regarding B15, the binding result is “binds”. Take B16: the binding result is “binds”. As for B17, the entry is “binds”. Take B18: the binding result is recorded as “binds”. The same measure for B19: “binds”.
